{
  "source": "paper PMC11238716",
  "about": "(ACS Medicinal Chemistry Letters, 2024)",
  "proteins": {"B1": {"name": "6 × HisMBP-SREBP-1a (1–198) (domain or fragment, human, UniProt P36956-1 1-198, looked up)", "chain": "MDEPPFSEAALEQALGEPCDLDAALLTDIEDMLQLINNQDSDFPGLFDPPYAGSGAGGTDPASPDTSSPGSLSPPPATLSSSLEAFLSGPQAAPSPLSPPQPAPTPLKMYPSMPAFSPGPGIKEESVPLSILQTPTPQPLPGALLPQSFPAPAPPQFSSTPVLGYPSPPGGFSTGSPPGNTQQPLPGLPLASPPGVPP"}},
  "biological_target": "the molecule itself",
  "test": "SEC",
  "data": [
    {"protein": "B1", "values": [
      {"measurement": "binding result", "result": "binds"}
    ]}
  ]
}
